Data from patent publication US20250346634A1, “CYCLIC PEPTIDES FOR TARGETING EPIDERMAL GROWTH FACTOR RECEPTOR AND MUTATIONS THEREOF FOR DRUG DELIVERY” (priority 2022, published 2025).
Bridge positions count the residues as written; N and C are the ends. Peptide text beside a SMILES is read from it. * marks the point of attachment. FITC = O=C1OC2(c3ccc(O)cc3Oc3cc(O)ccc32)c2ccc(NC(=S)*)cc21; GABA = NCCCC(=O)O

Tests used:
H1299 cells = assay: XTT cytotoxicity assay on H1299 cells; type: cell-based; details: for IC50: H1299
Method: (§1) Cell growth in the presence of PDCs was measured by a commercial XTT assay kit (Cell Proliferation Kit, XTT based; Biological Industries, Israel). The cells (10^4 cells/well) were seeded in 96 well plates and incubated overnight in complete growth medium. The cells were washed and then cultured in 100 μl of new medium containing various concentrations of drug or peptides, for 24 h, 48 h, and 72 h. The XTT solution was added to each well and the plate was further incubated 2-3 h at 37° C. The optical density in the wells was measured at both 480 nm and 680 nm using a TECAN Infinite M200 ELISA reader. All the tests were done in triplicates, and each experiment was repeated three times.
(§2) The cytotoxicity of the Peptide-Drug conjugates (PDCs) was tested in a range of concentrations (0.5-50 μM) against H1299 and DKMG cells using two protocols. In the first protocol, cells were pre-incubated with P6, P9, P6-CPT, and P9-CPT for 6 hours, the medium was removed, and a fresh, drug-free complete medium was added for additional 24 h (designated as 6h24h) or 48 h (6h48h). In the second protocol, cells were exposed continuously to PDCs for 24 h, 48 h, and 72 hours.

[1] = system: EGFR+ve cells (H1299, DKMG) versus K562 cells; assay: Flow cytometry internalization of peptide-FITC conjugates; type: cell-based; details: 2.5 μM FITC-labeled peptide
Description: Analysis was done with FACS cell analyzer.

DKMG cells = assay: XTT cytotoxicity assay on DKMG cells; type: cell-based
Method: as §1, §2

[2] = target: T1, epidermal growth factor receptor (EGFR), wild type (human, UniProt P00533 25-1210); assay: flow cytometry, 2.5 uM FITC-peptide on H1299 cells (EGFR overexpressing)
T1 construct: whole, on cells; The target is inferred from tumour cell lines that overexpress EGFR, compared with EGFR-negative cells; No purified receptor was used; also called EGFRWT; EGFR WT

[3] = target: T2, EGFR variant III (EGFRvIII), on DKMG glioblastoma cells (human, UniProt P00533 25-1210); assay: flow cytometry, 2.5 uM FITC-peptide on DKMG cells (EGFR WT and EGFRvIII)
T2 construct: whole, on cells; DKMG cells express both wild type EGFR (92% of cells) and EGFRvIII (82%); All results on DKMG cells are written against this molecule; also called EGFR mutant; EGFRVIII DKMG

**Q.** How did the cytotoxicity (H1299 cells) turn out when CC[C@H](C)[C@@H]1NC(=O)[C@H](Cc2ccc(O)cc2)NC(=O)[C@H](CO)NC(=O)CNC(=O)[C@@H]2CCCN2C(=O)[C@H](C(C)C)NC(=O)[C@H](Cc2cnc[nH]2)NC(=O)[C@@H](N)CSSC[C@@H](C(N)=O)NC1=O [Peptide P6] (H-CHVPGSYIC-NH2; disulfide 1-9) was run?
**A.** did not demonstrate cytotoxicity

**Q.** And the IC50 (H1299 cells; 24 h continuous exposure)?
**A.** 27.5 ± 0.8 µM

**Q.** What about the IC50 (H1299 cells; 48 h continuous exposure) of the same molecule?
**A.** 32 µM

**Q.** And the IC50 (H1299 cells; 72 h continuous exposure)?
**A.** 28.8 µM

**Q.** CC(C)[C@@H]1NC(=O)[C@@H](NC(=O)CCCNC(=S)Nc2ccc3c(c2)C(=O)OC32c3ccc(O)cc3Oc3cc(O)ccc32)CSSC[C@@H](C(N)=O)NC(=O)[C@H](CCCNC(=N)N)NC(=O)CNC(=O)[C@H](Cc2ccccc2)NC(=O)[C@H](CCCNC(=N)N)NC(=O)[C@H](Cc2c[nH]c3ccccc23)NC(=O)[C@H](CCCNC(=N)N)NC1=O [FITC-labeled P3] ({FITC-GABA}-CVRWRFGRC-NH2; disulfide 1-9) was tested. Which “internalization (flow cytometry)” value [1] did it give?
**A.** internalized only into to EGFR+ve cells

**Q.** For CC[C@@]1(O)C(=O)OCc2c1cc1n(c2=O)Cc2cc3ccccc3nc2-1 [CPT, (S)-(+)-camptothecin, reference compound], which IC50 (H1299 cells; Homo sapiens, NCI-H1299, 6 w 48 h (6 h pre-incubation, then 48 h drug-free medium)) is on record?
**A.** 6.7 ± 1.8 µM

**Q.** What about the IC50 (DKMG cells; 6 w 48 h (6 h pre-incubation, then 48 h drug-free medium)) of the same molecule?
**A.** 8.5 ± 1 µM

**Q.** What about the IC50 (DKMG cells; 24 h continuous exposure) of the same molecule?
**A.** 25 µM

B1: FITC-labeled cyclic peptide P4, c(CLAVEVRPC) (peptide)
peptide: {FITC-GABA}-CLAVEVRPC-NH2
modifications: disulfide 1-9
SMILES: CC(C)C[C@@H]1NC(=O)[C@@H](NC(=O)CCCNC(=S)Nc2ccc3c(c2)C(=O)OC32c3ccc(O)cc3Oc3cc(O)ccc32)CSSC[C@@H](C(N)=O)NC(=O)[C@@H]2CCCN2C(=O)[C@H](CCCNC(=N)N)NC(=O)[C@H](C(C)C)NC(=O)[C@H](CCC(=O)O)NC(=O)[C@H](C(C)C)NC(=O)[C@H](C)NC1=O
notes: also called FITC-labeled P4
**Q.** What does the source list for B1?
**A.** binding result [2]: binds; binding result [3]: binds

B2: FITC-labeled cyclic peptide P8, c(CSALWASHC) (peptide)
peptide: {FITC-GABA}-CSALWASHC-NH2
modifications: disulfide 1-9
SMILES: CC(C)C[C@@H]1NC(=O)[C@H](C)NC(=O)[C@H](CO)NC(=O)[C@@H](NC(=O)CCCNC(=S)Nc2ccc3c(c2)C(=O)OC32c3ccc(O)cc3Oc3cc(O)ccc32)CSSC[C@@H](C(N)=O)NC(=O)[C@H](Cc2c[nH]cn2)NC(=O)[C@H](CO)NC(=O)[C@H](C)NC(=O)[C@H](Cc2c[nH]c3ccccc23)NC1=O
notes: also called FITC-labeled P8
**Q.** What does the source list for B2?
**A.** binding result [2]: binds; binding result [3]: binds

B3: FITC-labeled cyclic peptide P2, c(CSAETVESC) (peptide)
peptide: {FITC-GABA}-CSAETVESC-NH2
modifications: disulfide 1-9
SMILES: CC(C)[C@@H]1NC(=O)[C@H]([C@@H](C)O)NC(=O)[C@H](CCC(=O)O)NC(=O)[C@H](C)NC(=O)[C@H](CO)NC(=O)[C@@H](NC(=O)CCCNC(=S)Nc2ccc3c(c2)C(=O)OC32c3ccc(O)cc3Oc3cc(O)ccc32)CSSC[C@@H](C(N)=O)NC(=O)[C@H](CO)NC(=O)[C@H](CCC(=O)O)NC1=O
notes: also called FITC-labeled P2
**Q.** Does B3 bind [2]?
**A.** binds

**Q.** Does B3 bind [3]?
**A.** binds

B4: FITC-labeled cyclic peptide P9, c(CVNAMQSYC) (peptide)
peptide: {FITC-GABA}-CVNAMQSYC-NH2
modifications: disulfide 1-9
SMILES: CSCC[C@@H]1NC(=O)[C@H](C)NC(=O)[C@H](CC(N)=O)NC(=O)[C@H](C(C)C)NC(=O)[C@@H](NC(=O)CCCNC(=S)Nc2ccc3c(c2)C(=O)OC32c3ccc(O)cc3Oc3cc(O)ccc32)CSSC[C@@H](C(N)=O)NC(=O)[C@H](Cc2ccc(O)cc2)NC(=O)[C@H](CO)NC(=O)[C@H](CCC(N)=O)NC1=O
notes: also called FITC-P9; FITC-labeled P9
**Q.** What does the source list for B4?
**A.** binding result [2]: binds; binding result [3]: binds

B5: FITC-labeled cyclic peptide P11, c(CAQYTPGRC) (peptide)
peptide: {FITC-GABA}-CAQYTPGRC-NH2
modifications: disulfide 1-9
SMILES: C[C@@H]1NC(=O)[C@@H](NC(=O)CCCNC(=S)Nc2ccc3c(c2)C(=O)OC32c3ccc(O)cc3Oc3cc(O)ccc32)CSSC[C@@H](C(N)=O)NC(=O)[C@H](CCCNC(=N)N)NC(=O)CNC(=O)[C@@H]2CCCN2C(=O)[C@H]([C@@H](C)O)NC(=O)[C@H](Cc2ccc(O)cc2)NC(=O)[C@H](CCC(N)=O)NC1=O
notes: also called FITC-labeled P11
**Q.** Does B5 bind [2]?
**A.** binds

**Q.** Does B5 bind [3]?
**A.** binds

B6: FITC-labeled cyclic peptide P3, c(CVRWRFGRC) (peptide)
peptide: {FITC-GABA}-CVRWRFGRC-NH2
modifications: disulfide 1-9
SMILES: CC(C)[C@@H]1NC(=O)[C@@H](NC(=O)CCCNC(=S)Nc2ccc3c(c2)C(=O)OC32c3ccc(O)cc3Oc3cc(O)ccc32)CSSC[C@@H](C(N)=O)NC(=O)[C@H](CCCNC(=N)N)NC(=O)CNC(=O)[C@H](Cc2ccccc2)NC(=O)[C@H](CCCNC(=N)N)NC(=O)[C@H](Cc2c[nH]c3ccccc23)NC(=O)[C@H](CCCNC(=N)N)NC1=O
notes: also called FITC-labeled P3
**Q.** What does the source list for B6?
**A.** binding result [2]: binds; binding result [3]: binds

B7: FITC-labeled cyclic peptide P5, c(CPNDSYHQC) (peptide)
peptide: {FITC-GABA}-CPNDSYHQC-NH2
modifications: disulfide 1-9
SMILES: NC(=O)CC[C@@H]1NC(=O)[C@H](Cc2c[nH]cn2)NC(=O)[C@H](Cc2ccc(O)cc2)NC(=O)[C@H](CO)NC(=O)[C@H](CC(=O)O)NC(=O)[C@H](CC(N)=O)NC(=O)[C@@H]2CCCN2C(=O)[C@@H](NC(=O)CCCNC(=S)Nc2ccc3c(c2)C(=O)OC32c3ccc(O)cc3Oc3cc(O)ccc32)CSSC[C@@H](C(N)=O)NC1=O
notes: also called FITC-labeled P5
**Q.** Does B7 bind [2]?
**A.** binds

**Q.** Does B7 bind [3]?
**A.** binds
